Reference: the supplement of paper PMC7125110
± gives the standard error. This sample holds only a part of the variants without activity.

B1: glmS ribozyme (parent)
chain: AUAAAAGCGCCAGAACUACAGAAAUGUAGUUGACGAGGAGGAGGUUUAUCGAAUUUUCGGCGGAUGCCUCCAAA

Key:
Conditions in all cases: with glucosamine-6-phosphate
[1] = variants of: B1; test: self-cleavage kobs at 160 uM GlcN6P; higher = faster cleavage; RNA array
How it was run: (§1)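 E. coli RNA polymerase transcribed barcoded ribozyme variants in situ on sequenced MiSeq chips, which were tracked via a hybridised Cy3 probe at 37 °C. Tiles were imaged over ~14 h after glucosamine-6-phosphate (40 μM to 10 mM) in HEPES/KCl/Mg(OAc)2 buffer was flowed in. Normalised per-tile medians were fit to one- or two-exponential decays for kobs, and kcat and KM came from weighted Michaelis–Menten fits.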

[2] = variants of: B1; test: self-cleavage kobs at 10000 uM GlcN6P; higher = faster cleavage; RNA array
How it was run: as §1

[3] = variants of: B1; test: self-cleavage kobs at 640 uM GlcN6P; higher = faster cleavage; RNA array
How it was run: as §1

[4] = variants of: B1; test: self-cleavage kobs at 2500 uM GlcN6P; higher = faster cleavage; RNA array
How it was run: as §1

Row | Variant | self-cleavage kobs at 160 uM GlcN6P [1] [s⁻¹] | self-cleavage kobs at 10000 uM GlcN6P [2] [s⁻¹] | self-cleavage kobs at 640 uM GlcN6P [3] [s⁻¹] | self-cleavage kobs at 2500 uM GlcN6P [4] [s⁻¹]
1 | A48G G62C | < 1e-05 | < 1e-05 | – | –
2 | C8U U55A | < 1e-05 | – | < 1e-05 | < 1e-05
3 | C10A A39U U69G | < 1e-05 | – | < 1e-05 | < 1e-05
4 | C10G U55A | < 1e-05 | – | < 1e-05 | –
5 | A33C U69G | < 1e-05 | < 1e-05 | – | < 1e-05
6 | G7A G41A C70G | < 1e-05 | – | – | –
7 | G32C G60U | < 1e-05 | < 1e-05 | < 1e-05 | < 1e-05
8 | A33U G43C | < 1e-05 | – | < 1e-05 | < 1e-05
9 | U30C G41C U49G G51U C58A | < 1e-05 | – | – | –
10 | C8A G9U G32A G51A | < 1e-05 | – | – | –
11 | G7C A36G A39C | < 1e-05 | – | < 1e-05 | –
12 | A42U U56G C61U | < 1e-05 | – | – | –
13 | G13C A53U G59A C71U | < 1e-05 | – | – | < 1e-05
14 | G59C G63U C71A | < 1e-05 | – | – | –
15 | U57G C58A G63U | < 1e-05 | – | – | –
16 | A6U A42C A53C U65G | < 1e-05 | – | < 1e-05 | < 1e-05
17 | C34A G37A C58U | < 1e-05 | – | – | –
18 | A39U G59U | < 1e-05 | 3.61e-05 ± 1.4e-05 | < 1e-05 | –
19 | G9C G32C A33C A39G C61A | < 1e-05 | – | – | < 1e-05
20 | G7U A33C C67A C68U | < 1e-05 | – | – | < 1e-05
21 | G41A A53G | 0.000343 ± 7e-05 | 0.00427 ± 0.00084 | 0.000842 ± 0.00015 | 0.00129 ± 0.00028
22 | A36C U54C | < 1e-05 | < 1e-05 | – | –
23 | G37U A48C C68U | < 1e-05 | – | < 1e-05 | –
24 | A39C U54G | 0.000221 ± 9.6e-05 | 0.005 ± 0.0012 | 0.00106 ± 0.00043 | –
25 | A33C A64U C70A | < 1e-05 | – | – | < 1e-05
26 | A6C U49A C50U | < 1e-05 | – | < 1e-05 | –

Row | Variant | self-cleavage kobs at 160 uM GlcN6P [1] [s⁻¹] | self-cleavage kobs at 10000 uM GlcN6P [2] [s⁻¹] | self-cleavage kobs at 640 uM GlcN6P [3] [s⁻¹] | self-cleavage kobs at 2500 uM GlcN6P [4] [s⁻¹]
27 | U47G U49G G51A G62U | < 1e-05 | – | < 1e-05 | < 1e-05
28 | A6U G38C A64U G66U | < 1e-05 | – | < 1e-05 | < 1e-05
29 | A15C U30G C34U G40A U55A | < 1e-05 | – | – | –
30 | G29A A42G U45A | 6.61e-05 ± 3e-05 | – | 0.00154 ± 0.00038 | 0.00402 ± 0.0015
31 | C50A U54G C67G | 0.000319 ± 0.00012 | – | 0.000125 ± 4.8e-05 | 0.000101 ± 4.6e-05
32 | C11A C50G C61U | 0.000476 ± 0.00011 | – | 0.000601 ± 0.00018 | –
33 | G41U C50U | < 1e-05 | < 1e-05 | < 1e-05 | < 1e-05
34 | G38C G59A | < 1e-05 | – | < 1e-05 | –
35 | G41A C67U | < 1e-05 | – | < 1e-05 | < 1e-05
36 | C16A A52U | < 1e-05 | 3.13e-05 ± 8.8e-06 | – | –
37 | G35U A36U G37U G66U | < 1e-05 | – | – | –
38 | U45G G66A | 0.0029 ± 0.00042 | – | 0.00605 ± 0.0014 | 0.0257 ± 0.0093
39 | C50G G59U C70U | 4.6e-05 ± 2.1e-05 | – | 9.86e-05 ± 2.5e-05 | 8.37e-05 ± 3.5e-05
40 | C8U G35A U49C A64C C71A | < 1e-05 | – | – | –
41 | G7U G13U A15C | < 1e-05 | – | < 1e-05 | < 1e-05
42 | G35U G43A | < 1e-05 | < 1e-05 | – | < 1e-05
43 | C8U G41C G62U C68U | < 1e-05 | – | < 1e-05 | < 1e-05
44 | G7C C8G | < 1e-05 | < 1e-05 | < 1e-05 | < 1e-05
45 | A48C C61G | < 1e-05 | < 1e-05 | < 1e-05 | < 1e-05
46 | C11U G13U U49G | < 1e-05 | – | < 1e-05 | < 1e-05
47 | A36U G60A | < 1e-05 | < 1e-05 | – | < 1e-05
48 | A15G C58G C68U | 8.66e-05 ± 3.1e-05 | 3.61e-05 ± 1.6e-05 | 6.1e-05 ± 1.7e-05 | 5.67e-05 ± 1.6e-05
49 | G35A G43A U47C U56C | < 1e-05 | – | < 1e-05 | –
50 | A15G U47C G63A | < 1e-05 | – | < 1e-05 | < 1e-05
51 | A42U U47A C70G | < 1e-05 | – | < 1e-05 | –
